The values that follow come from patent US20050079503A1, “Binding domain of Siah (seven in absentia homolog) protein” (PETER MacCALLUM CANCER INSTITUTE, ST. VINCENT'S INSTITUTE …, priority 2001, published 2005).

One data set concerns the target T1, Siah (Mus musculus, UniProt P61092).
T1 construct: made in house; host or cells: bacteria
T1 sequence (P61092 1-282): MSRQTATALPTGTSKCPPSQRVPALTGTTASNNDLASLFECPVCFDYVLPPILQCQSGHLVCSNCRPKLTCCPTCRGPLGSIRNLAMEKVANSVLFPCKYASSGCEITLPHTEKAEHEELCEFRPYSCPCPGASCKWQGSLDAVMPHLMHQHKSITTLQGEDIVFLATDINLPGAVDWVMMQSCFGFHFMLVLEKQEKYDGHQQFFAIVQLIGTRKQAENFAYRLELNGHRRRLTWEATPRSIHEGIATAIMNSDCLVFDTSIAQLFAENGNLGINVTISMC
Nature of the data set: Interaction studies using bacterially expressed proteins. It counts as binding. From the text: PHYL is known to interact and function with SINA, the Drosophila orthologue of mammalian Siah, in the targeted degradation of the transcriptional repressor tramtrack 88 (TTK88). Applicants have shown that it interacts similarly with mammalian Siah.

The next data set concerns the target T2, Siah1a SBD (Mus musculus, UniProt P61092).
T2 construct: isolating a complex of GST-PHYL108-130 and Siah1a SBD by gel filtration; made in house; host or cells: E. coli BL21DE3
T2 sequence (P61092 90-282 limits assumed): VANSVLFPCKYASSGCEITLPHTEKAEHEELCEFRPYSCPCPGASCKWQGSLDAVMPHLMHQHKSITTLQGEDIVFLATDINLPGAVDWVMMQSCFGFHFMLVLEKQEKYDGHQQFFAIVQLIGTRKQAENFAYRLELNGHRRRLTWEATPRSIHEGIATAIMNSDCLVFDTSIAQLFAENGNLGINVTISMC
Description: Stoichiometry of the GST-PHYL108-130 / Siah1a SBD complex by gel filtration and N-terminal sequencing. It counts as binding. The settings on record: complex isolated on Superdex 200; after five cycles of N-terminal sequencing. The text has this:
(§1) The stoichiometry of interaction was investigated by isolating a complex of GST-PHYL108-130 and Siah1a SBD by gel filtration on Superdex 200 and quantitating the components by N-terminal sequencing.
(In gel filtration, larger molecules generally elute earlier.)

The target of a further data set is T3, MBP-Siah1a (Mus musculus, UniProt P61092).
T3 construct: made in house; host or cells: pMalC2 plasmid
T3 sequence (P61092 1-282): T1 sequence (P61092 1-282)
Description: Surface plasmon resonance (Biacore) binding of PHYL108-130 to Siah. The settings on record: Biacore 2000, peptide immobilised on chip, MBP-Siah1a as analyte, read-out: affinity constant. The text has this:
(§2) The binding kinetics for Siah interaction with PHYL108-130 were monitored using surface plasmon resonance on a Biacore 2000. The biotinylated PHYL108-130 peptide was captured on the chip surface by immobilised neutravidin, and MBP-Siah1a was used as analyte.
(§3) To determine binding affinities, synthetic PHYL peptide was immobilised to a C5 BIAcore chip using two different strategies (direct chemical coupling through the free amino group on Lysine113 and binding to coupled avidin via an N-terminal biotin on the peptide) and interaction was measured directly by surface plasmon resonance. This method facilitated the measurement of association and dissociation rates, and the determination of an affinity constant (FIG. 26).
In general terms: SPR reads the build-up and loss of mass on a sensor chip optically.

For the next data set, the target named is T4, MBP-Siah (Mus musculus, UniProt P61092).
T4 construct: made in house
T4 sequence (P61092 1-282): T1 sequence (P61092 1-282)
Nature of the data set: Competition assay: peptides as competitors of wild-type PHYL108-130 binding to Siah (96-well plate, anti-MBP detection). The settings on record: competition with immobilised GST-PHYL108-130 for MBP-Siah, 1 hour at room temperature; estimated from inhibition curves; read-out: IC50 (concentration at which 50% inhibition is observed). The procedure: Mutant peptides were used in a competition assay in which they were tested as competitors of wild-type PHYL 108-130 binding to Siah. GST-PHYL108-130 was immobilised in wells of a 96-well plate and MBP-Siah was bound for 1 hour at room temperature, in the presence of various concentrations of mutant peptides. After binding and washing, the amount of bound MBP-Siah was quantitated in a two antibody sandwich of anti-MBP antibody, followed by HRP-conjugated goat anti-rabbit antibody, using ABTS as substrate. IC50 (the concentration at which 50% inhibition is observed) values were estimated from the individual inhibition curves.
In order to test this hypothesis Applicants systematically mutated the PHYL peptide, utilising the solid phase pin technology of Mimotopes (Clayton, Victoria, Australia). A full set of peptides, with alanine substituted at each position in the peptide, was synthesised. At positions where a native alanine occurred, glycine was substituted. Mutant peptides were screened for their ability to compete with the binding between Siah and PHYL peptide, then peptides of interest were investigated further utilising surface plasmon resonance.
The initial screen of peptides yielded IC50 values of approximately 50-100 nM for wild-type peptide or peptides with ineffective mutations. […]

Data set [1] has as its target T5, MBP-Siah1a fusion protein (mouse, UniProt P61092 1-282, limits assumed).
T5 construct: not shown: linker to Siah1a not described
T5 sequence (looked up): T1 sequence (P61092 1-282)
Nature of the data set: SPR, Biacore 2000; biotinylated peptide captured on immobilised neutravidin, MBP-Siah1a as analyte.
From the text: as §2, §3

The next data set addresses T6, GST-PHYL108-130 (Drosophila).
T6 construct: also called PHYL peptide as a fusion protein with glutathione-S-transferase; not shown: glutathione-S-transferase (GST) fusion partner
T6 chain: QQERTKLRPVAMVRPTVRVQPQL
Nature of the data set: complex isolated by gel filtration on Superdex 200, components quantitated by N-terminal sequencing (five cycles).
From the text: as §1

Data set [2] deals with the molecule itself. Nature of the data set: size exclusion chromatography (self-association of the Siah1a binding domain).
For data set [3], the target named is T7, MBP-Siah1a-ZC fusion protein (mouse, UniProt P61092 80-282).
T7 construct: range 80-282; ZC = zinc fingers plus C-terminus, residues 80-282 of Siah1a, fused to MBP; also called Siah SBD; not shown: linker not described
T7 sequence (looked up): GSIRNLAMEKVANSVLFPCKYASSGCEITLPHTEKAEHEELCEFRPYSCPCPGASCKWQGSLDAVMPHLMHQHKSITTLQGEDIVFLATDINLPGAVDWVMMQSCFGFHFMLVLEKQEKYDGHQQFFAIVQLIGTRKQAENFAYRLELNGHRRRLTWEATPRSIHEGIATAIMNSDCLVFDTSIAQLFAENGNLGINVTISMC
Description: ELISA: biotinylated plectin peptide captured on Neutravidin-coated plate, bound MBP fusion detected with anti-MBP and HRP antibody, ABTS, A405. The procedure:
Siah SBD binding to the plectin peptide (Biotin-[…]-NH2 corresponding to residues 95-117 of human plectin) was assessed by capturing biotinylated peptide on a 96-well plate coated with 0.5 μg Neutravidin per well. Peptide was captured for 30 min at room temperature at a concentration of 4 μg/ml. MBP-Siah1a-ZC fusion protein was bound to the peptide for 50 min at room temperature (or the controls of buffer alone (PBS/tween 20) or mutant MBP-Siah1a-ZC containing a Leu211 to Arg mutation). Bound protein was quantitated by rabbit anti-MBP antibody (1:300 dilution), then HRP conjugated goat-anti-rabbit antibody. Detection utilised ABTS substrate read at A405.

Values joined by “and” are separate entries in the source; they are usually repeats but may differ in a detail not shown here. Equal values may be shown once. No end group written: not given here. *: point of attachment. Biotin = O=C1N[C@H]2[C@H](CS[C@H]2CCCCC(=O)*)N1

As to DCC: deleted in colorectal cancer (DCC), the “affinity of interaction with Siah (in words)” value (“affinity of interaction” for short) in the data set with Siah is listed as “lower affinity”.
Turning to “GST-PHYL108-130: PHYL 23-residue peptide expressed as a fusion with glutathione-S-transferase (GST) (QQERTKLRPVAMVRPTVRVQPQL; not fully specified (N-terminus); also: GST fusion)”, the “average ratio of Siah binding domain to GST-PHYL108-130 residues” value in the data set with Siah1a SBD is 2.34±0.38.
On to QQERTKLRPVAMVRPTVRVQPQL [PHYL108-130], for which the Kd at MBP-Siah1a is ~180 nM and 180 nM. In addition, the IC50 at MBP-Siah is 50 to 100 nM.

B1: Kid: kinesin-like DNA-binding protein (Kid) (protein, UniProt Q14807 1-665, looked up)
Kinesin-like protein KIF22: MAAGGSTQQRRREMAAASAAAISGAGRCRLSKIGATRRPPPARVRVAVRLRPFVDGTAGASDPPCVRGMDSCSLEIANWRNHQETLKYQFDAFYGERSTQQDIYAGSVQPILRHLLEGQNASVLAYGPTGAGKTHTMLGSPEQPGVIPRALMDLLQLTREEGAEGRPWALSVTMSYLEIYQEKVLDLLDPASGDLVIREDCRGNILIPGLSQKPISSFADFERHFLPASRNRTVGATRLNQRSSRSHAVLLVKVDQRERLAPFRQREGKLYLIDLAGSEDNRRTGNKGLRLKESGAINTSLFVLGKVVDALNQGLPRVPYRDSKLTRLLQDSLGGSAHSILIANIAPERRFYLDTVSALNFAARSKEVINRPFTNESLQPHALGPVKLSQKELLGPPEAKRARGPEEEEIGSPEPMAAPASASQKLSPLQKLSSMDPAMLERLLSLDRLLASQGSQGAPLLSTPKRERMVLMKTVEEKDLEIERLKTKQKELEAKMLAQKAEEKENHCPTMLRPLSHRTVTGAKPLKKAVVMPLQLIQEQAASPNAEIHILKNKGRKRKLESLDALEPEEKAEDCWELQISPELLAHGRQKILDLLNEGSARDLRSLQRIGPKKAQLIVGWRELHGPFSQVEDLERVEGITGKQMESFLKANILGLAAGQRCGAS
With B1, the “affinity of interaction” value with Siah was “lower affinity”.

B2: OBF-1: Oct-binding factor 1 (OBF-1) (protein, UniProt Q16633 1-256, looked up)
POU domain class …: MLWQKPTAPEQAPAPARPYQGVRVKEPVKELLRRKRGHASSGAAPAPTAVVLPHQPLATYTTVGPSCLDMEGSVSAVTEEAALCAGWLSQPTPATLQPLAPWTPYTEYVPHEAVSCPYSADMYVQPVCPSYTVVGPSSVLTYASPPLITNVTTRSSATPAVGPPLEGPEHQAPLTYFPWPQPLSTLPTSTLQYQPPAPALPGPQFVQLPISIPEPVLQDMEDPRRAASSLTIDKLLLEEEDSDAYALNHTLSVEGF
On to B2, for which the “affinity of interaction” value in the data set with Siah is “lower affinity”.

B3: biotinylated PHYL108-130 peptide (peptide)
peptide: Biotin-QQERTKLRPVAMVRPTVRVQPQL
notes: also called synthetic PHYL peptide
Regarding B3, in data set [1], the Kd worked out at 180 nM.

B4: SIP: Siah-interacting protein (SIP) (protein, UniProt Q9HB71 2-228, looked up)
Calcyclin-binding protein: ASEELQKDLEEVKVLLEKATRKRVRDALTAEKSKIETEIKNKMQQKSQKKAELLDNEKPAAVVAPITTGYTVKISNYGWDQSDKFVKIYITLTGVHQVPTENVQVHFTERSFDLLVKNLNGKSYSMIVNNLLKPISVEGSSKKVKTDTVLILCRKKVENTRWDYLTQVEKECKEKEKPSYDTETDPSEGLMNVLKKIYEDGDDDMKRTINKAWVESREKQAKGDTEF
As to B4, the “affinity of interaction” value with Siah is “lower affinity”.

B5: Siah1a binding domain (purified tryptic fragment) (other, mouse, UniProt P61092 90-282, looked up)
chain: T2 sequence (P61092 90-282 limits assumed)
modifications: two 2-mercaptoethanol adducts on cysteines in the purified form (21,838 Da; 21,685 Da when reduced)
notes: Dimer by size exclusion chromatography and in the crystal; Start residue must be found by locating VANSV on Siah1a; also called Siah1a SBD
Regarding B5, in the data set with GST-PHYL108-130, the “average ratio of Siah binding domain to GST-PHYL108-130 residues (stoichiometry)” value stood at 2.34 mol/mol. The binding result in data set [2] was “binds”.

B6: plectin peptide (Biotin-ASLQRVRRPVAMVMPARRTPHVQ-NH2) (peptide)
peptide: Biotin-ASLQRVRRPVAMVMPARRTPHVQ-NH2
SMILES: CSCC[C@H](NC(=O)[C@H](C)NC(=O)[C@@H](NC(=O)[C@@H]1CCCN1C(=O)[C@H](CCCNC(=N)N)NC(=O)[C@H](CCCNC(=N)N)NC(=O)[C@@H](NC(=O)[C@H](CCCNC(=N)N)NC(=O)[C@H](CCC(N)=O)NC(=O)[C@H](CC(C)C)NC(=O)[C@H](CO)NC(=O)[C@H](C)NC(=O)CCCC[C@@H]1SC[C@@H]2NC(=O)N[C@@H]21)C(C)C)C(C)C)C(=O)N[C@H](C(=O)N[C@@H](CCSC)C(=O)N1CCC[C@H]1C(=O)N[C@@H](C)C(=O)N[C@@H](CCCNC(=N)N)C(=O)N[C@@H](CCCNC(=N)N)C(=O)N[C@H](C(=O)N1CCC[C@H]1C(=O)N[C@@H](Cc1c[nH]cn1)C(=O)N[C@H](C(=O)N[C@@H](CCC(N)=O)C(N)=O)C(C)C)[C@@H](C)O)C(C)C
notes: also called synthetic peptide corresponding to residues 95-117 of human plectin
With B6, the binding result in data set [3] is “binds”.
